Measurements as given in patent publication US20260139055A1.
Residue numbers refer to the chain shown, from its start. Names and notes keep the numbering of the source.

B1: canine IgGB (65) mAb with mutation Q311L (antibody, part only; not given: Variable domains, not shown: another chain or arm of the molecule)
constant: ASTTAPSVFPLAPSCGSTSGSTVALACLVSGYFPEPVTVSWNSGSLTSGVHTFPSVLQSSGLYSLSSMVTVPSSRWPSETFTCNVAHPASKTKVDKPVPKRENGRVPRPPDCPKCPAPEMLGGPSVFIFPPKPKDTLLIARTPEVTCVVVDLDPEDPEVQISWFVDGKQMQTAKTQPREEQFNGTYRVVSVLPIGHLDWLKGKQFTCKVNNKALPSPIERTISKARGQAHQPSVYVLPPSREELSKNTVSLTCLIKDFFPPDIDVEWQSNGQQEPESKYRTTPPQLDEDGSYFLYSKLSVDKSRWQRGDTFICAVMHEALHNHYTQESLSHSPGK
B2: canine IgGB (65) mAb with mutation A426V (antibody, part only; not given: Variable domains, not shown: another chain or arm of the molecule)
constant: B1 constant with L197Q, A314V
B3: canine IgGB (65) mAb with mutation A426D (antibody, part only; not given: Variable domains, not shown: another chain or arm of the molecule)
constant: B1 constant with L197Q, A314D
B4: canine IgGB (65) mAb with mutation A426E (antibody, part only; not given: Variable domains, not shown: another chain or arm of the molecule)
constant: B1 constant with L197Q, A314E
B5: canine IgGB (65) mAb with mutation Y436R (antibody, part only; not given: Variable domains, not shown: another chain or arm of the molecule)
constant: B1 constant with L197Q, Y324R
B6: canine IgGB (65) mAb with mutation Y436I (antibody, part only; not given: variable domains of unnamed mAb, not shown: another chain or arm of the molecule)
constant: B1 constant with L197Q, Y324I
B7: canine IgGB (65) mAb with mutation D312S (antibody, part only; not given: variable domains of unnamed mAb, not shown: another chain or arm of the molecule)
constant: B1 constant with L197Q, D198S
B8: canine IgGB (65) mAb with mutation Y436D (antibody, part only; not given: Variable domains, not shown: another chain or arm of the molecule)
constant: B1 constant with L197Q, Y324D
B9: canine IgGB (65) mAb with mutation D312N (antibody, part only; not given: Variable domains, not shown: another chain or arm of the molecule)
constant: B1 constant with L197Q, D198N
B10: canine IgGB (65) mAb with mutation Y436F (antibody, part only; not given: Variable domains, not shown: another chain or arm of the molecule)
constant: B1 constant with L197Q, Y324F
B11: canine IgGB (65) mAb with mutation T286H (antibody, part only; not given: variable domains of unnamed mAb, not shown: another chain or arm of the molecule)
constant: B1 constant with T172H, L197Q
B12: canine IgGB (65) mAb with mutation Y436Q (antibody, part only; not given: Variable domains, not shown: another chain or arm of the molecule)
constant: B1 constant with L197Q, Y324Q
B13: canine IgGB (65) mAb with mutation T286G (antibody, part only; not given: Variable domains, not shown: another chain or arm of the molecule)
constant: B1 constant with T172G, L197Q
B14: canine IgGB (65) mAb with mutation D312A (antibody, part only; not given: variable domains of unnamed mAb, not shown: another chain or arm of the molecule)
constant: B1 constant with L197Q, D198A
B15: canine IgGB (65) mAb with mutation Q311W (antibody, part only; not given: variable domains of unnamed mAb, not shown: another chain or arm of the molecule)
constant: B1 constant with L197W
B16: canine IgGB (65) mAb with mutation D312H (antibody, part only; not given: Variable domains, not shown: another chain or arm of the molecule)
constant: B1 constant with L197Q, D198H
B17: canine IgGB (65) mAb with mutation D312T (antibody, part only; not given: Variable domains, not shown: another chain or arm of the molecule)
constant: B1 constant with L197Q, D198T
B18: canine IgGB (65) mAb with mutation D312R (antibody, part only; not given: variable domains of unnamed mAb, not shown: another chain or arm of the molecule)
constant: B1 constant with L197Q, D198R
B19: canine IgGB (65) mAb with mutation Q311Y (antibody, part only; not given: variable domains of unnamed mAb, not shown: another chain or arm of the molecule)
constant: B1 constant with L197Y
B20: canine IgGB (65) mAb with mutation D312G (antibody, part only; not given: Variable domains, not shown: another chain or arm of the molecule)
constant: B1 constant with L197Q, D198G
B21: canine IgGB (65) mAb with mutation D312I (antibody, part only; not given: Variable domains, not shown: another chain or arm of the molecule)
constant: B1 constant with L197Q, D198I
B22: canine IgGB (65) mAb with mutation Q311P (antibody, part only; not given: variable domains of unnamed mAb, not shown: another chain or arm of the molecule)
constant: B1 constant with L197P
B23: canine IgGB (65) mAb with mutation D312Y (antibody, part only; not given: variable domains of unnamed mAb, not shown: another chain or arm of the molecule)
constant: B1 constant with L197Q, D198Y
B24: canine IgGB (65) mAb with mutation Y436E (antibody, part only; not given: Variable domains, not shown: another chain or arm of the molecule)
constant: B1 constant with L197Q, Y324E
B25: canine IgGB (65) mAb with mutation A426Q (antibody, part only; not given: variable domains of unnamed mAb, not shown: another chain or arm of the molecule)
constant: B1 constant with L197Q, A314Q
B26: canine IgGB (65) mAb with mutation D312E (antibody, part only; not given: Variable domains, not shown: another chain or arm of the molecule)
constant: B1 constant with L197Q, D198E
B27: canine IgGB (65) mAb with mutation Q311R (antibody, part only; not given: Variable domains, not shown: another chain or arm of the molecule)
constant: B1 constant with L197R
B28: canine IgGB (65) mAb with mutation D312L (antibody, part only; not given: Variable domains, not shown: another chain or arm of the molecule)
constant: B1 constant with L197Q, D198L
B29: canine IgGB (65) mAb with mutation Y436L (antibody, part only; not given: variable domains of unnamed mAb, not shown: another chain or arm of the molecule)
constant: B1 constant with L197Q, Y324L
B30: canine IgGB (65) mAb with mutation Y436M (antibody, part only; not given: Variable domains, not shown: another chain or arm of the molecule)
constant: B1 constant with L197Q, Y324M
B31: canine IgGB (65) mAb with mutation A426L (antibody, part only; not given: variable domains of unnamed mAb, not shown: another chain or arm of the molecule)
constant: B1 constant with L197Q, A314L
B32: canine IgGB (65) mAb with mutation A426G (antibody, part only; not given: variable domains of unnamed mAb, not shown: another chain or arm of the molecule)
constant: B1 constant with L197Q, A314G
B33: canine IgGB (65) mAb with mutation A426M (antibody, part only; not given: Variable domains, not shown: another chain or arm of the molecule)
constant: B1 constant with L197Q, A314M
B34: canine IgGB (65) mAb with mutation D312K (antibody, part only; not given: variable domains of unnamed mAb, not shown: another chain or arm of the molecule)
constant: B1 constant with L197Q, D198K
B35: canine IgGB (65) mAb with mutation Y436K (antibody, part only; not given: variable domains of unnamed mAb, not shown: another chain or arm of the molecule)
constant: B1 constant with L197Q, Y324K
B36: canine IgGB (65) mAb with mutation D312M (antibody, part only; not given: Variable domains, not shown: another chain or arm of the molecule)
constant: B1 constant with L197Q, D198M
B37: canine IgGB (65) mAb with mutation A426C (antibody, part only; not given: Variable domains, not shown: another chain or arm of the molecule)
constant: B1 constant with L197Q, A314C
B38: canine IgGB (65) mAb with mutation A426K (antibody, part only; not given: Variable domains, not shown: another chain or arm of the molecule)
constant: B1 constant with L197Q, A314K
B39: canine IgGB (65) mAb with mutation Q311S (antibody, part only; not given: variable domains of unnamed mAb, not shown: another chain or arm of the molecule)
constant: B1 constant with L197S
B40: canine IgGB (65) mAb with mutation A426I (antibody, part only; not given: Variable domains, not shown: another chain or arm of the molecule)
constant: B1 constant with L197Q, A314I
B41: canine IgGB (65) mAb with mutation Y436C (antibody, part only; not given: Variable domains, not shown: another chain or arm of the molecule)
constant: B1 constant with L197Q, Y324C
B42: canine IgGB (65) mAb with mutation Q311M (antibody, part only; not given: Variable domains, not shown: another chain or arm of the molecule)
constant: B1 constant with L197M
B43: canine IgGB (65) mAb with mutation T286D (antibody, part only; not given: Variable domains, not shown: another chain or arm of the molecule)
constant: B1 constant with T172D, L197Q
B44: canine IgGB (65) mAb with mutation A426N (antibody, part only; not given: Variable domains, not shown: another chain or arm of the molecule)
constant: B1 constant with L197Q, A314N
B45: canine IgGB (65) mAb with mutation Y436N (antibody, part only; not given: variable domains of unnamed mAb, not shown: another chain or arm of the molecule)
constant: B1 constant with L197Q, Y324N
B46: canine IgGB (65) mAb with mutation Q311T (antibody, part only; not given: Variable domains, not shown: another chain or arm of the molecule)
constant: B1 constant with L197T
B47: canine IgGB (65) mAb with mutation T286E (antibody, part only; not given: Variable domains, not shown: another chain or arm of the molecule)
constant: B1 constant with T172E, L197Q
B48: canine IgGB (65) mAb with mutation T286I (antibody, part only; not given: Variable domains, not shown: another chain or arm of the molecule)
constant: B1 constant with T172I, L197Q
B49: canine IgGB (65) mAb with mutation A426R (antibody, part only; not given: variable domains of unnamed mAb, not shown: another chain or arm of the molecule)
constant: B1 constant with L197Q, A314R
B50: canine IgGB (65) mAb with mutation D312C (antibody, part only; not given: variable domains of unnamed mAb, not shown: another chain or arm of the molecule)
constant: B1 constant with L197Q, D198C
B51: canine IgGB (65) mAb with mutation A426P (antibody, part only; not given: Variable domains, not shown: another chain or arm of the molecule)
constant: B1 constant with L197Q, A314P
B52: canine IgGB (65) mAb with mutation A426W (antibody, part only; not given: variable domains of unnamed mAb, not shown: another chain or arm of the molecule)
constant: B1 constant with L197Q, A314W
B53: canine IgGB (65) mAb with mutation D312F (antibody, part only; not given: Variable domains, not shown: another chain or arm of the molecule)
constant: B1 constant with L197Q, D198F
B54: canine IgGB (65) mAb with mutation D312W (antibody, part only; not given: Variable domains, not shown: another chain or arm of the molecule)
constant: B1 constant with L197Q, D198W
B55: canine IgGB (65) mAb with mutation D312V (antibody, part only; not given: variable domains of unnamed mAb, not shown: another chain or arm of the molecule)
constant: B1 constant with L197Q, D198V
B56: canine IgGB (65) mAb with mutation Y436P (antibody, part only; not given: variable domains of unnamed mAb, not shown: another chain or arm of the molecule)
constant: B1 constant with L197Q, Y324P
B57: canine IgGB (65) mAb with mutation D312Q (antibody, part only; not given: Variable domains, not shown: another chain or arm of the molecule)
constant: B1 constant with L197Q, D198Q
B58: canine IgGB (65) mAb with mutation Y436G (antibody, part only; not given: Variable domains, not shown: another chain or arm of the molecule)
constant: B1 constant with L197Q, Y324G
B59: canine IgGB (65) mAb with mutation A426T (antibody, part only; not given: variable domains of unnamed mAb, not shown: another chain or arm of the molecule)
constant: B1 constant with L197Q, A314T
B60: canine IgGB (65) mAb with mutation Q311N (antibody, part only; not given: variable domains of unnamed mAb, not shown: another chain or arm of the molecule)
constant: B1 constant with L197N
B61: canine IgGB (65) mAb with mutation A426S (antibody, part only; not given: Variable domains, not shown: another chain or arm of the molecule)
constant: B1 constant with L197Q, A314S

Molecular target: canine FcRn complex (FcRn-alpha subunit and beta-microglobulin), His-tagged, biotin labeled (canine)
Experiment: SPR (Biacore), biotin-FcRn captured on SA surface, IgG flowed over, pH 6, 15 C

| Binder | Kd [nM] |
| --- | --- |
| B1 | 19.1 |
| B2 | 9.11 |
| B3 | 14.9 |
| B4 | 4.77 |
| B5 | 3.83 |
| B6 | 8.41 |
| B7 | 14.8 |
| B8 | 12.9 |
| B9 | 17.1 |
| B10 | 9.8 |
| B11 | 5.07 |
| B12 | 4.74 |
| B13 | 6.48 |
| B14 | 10.3 |
| B15 | 2.49 |
| B16 | 9.72 |
| B17 | 10.6 |
| B18 | 23.1 |
| B19 | 2.61 |
| B20 | 26.8 |
| B21 | 21.5 |

| Binder | Kd [nM] |
| --- | --- |
| B22 | 21.2 |
| B23 | 25.1 |
| B24 | 5.28 |
| B25 | 8.41 |
| B26 | 14.1 |
| B27 | 15.2 |
| B28 | 12.1 |
| B29 | 4.26 |
| B30 | 9.51 |
| B31 | 5.17 |
| B32 | 7.36 |
| B33 | 8.84 |
| B34 | 24 |
| B35 | 6.88 |
| B36 | 16.2 |
| B37 | 8.86 |
| B38 | 3.81 |
| B39 | 8.7 |
| B40 | 8.54 |
| B41 | 8.84 |
| B42 | 13.1 |

| Binder | Kd [nM] |
| --- | --- |
| B43 | 6.83 |
| B44 | 5.33 |
| B45 | 7.27 |
| B46 | 10.7 |
| B47 | 8.66 |
| B48 | 6.38 |
| B49 | 4.23 |
| B50 | 19 |
| B51 | 23.7 |
| B52 | 3.87 |
| B53 | 21.9 |
| B54 | 14.4 |
| B55 | 14.1 |
| B56 | 668 |
| B57 | 9.97 |
| B58 | 9.67 |
| B59 | 8.72 |
| B60 | 10.1 |
| B61 | 11.9 |
